Laboratory results reported in IntAct's records for PubMed 17113272.

B1: Catenin beta-1 (Mus musculus), Q02248 (parent)
chain: MATQADLMELDMAMEPDRKAAVSHWQQQSYLDSGIHSGATTTAPSLSGKGNPEEEDVDTSQVLYEWEQGFSQSFTQEQVADIDGQYAMTRAQRVRAAMFPETLDEGMQIPSTQFDAAHPTNVQRLAEPSQMLKHAVVNLINYQDDAELATRAIPELTKLLNDEDQVVVNKAAVMVHQLSKKEASRHAIMRSPQMVSAIVRTMQNTNDVETARCTAGTLHNLSHHREGLLAIFKSGGIPALVKMLGSPVDSVLFYAITTLHNLLLHQEGAKMAVRLAGGLQKMVALLNKTNVKFLAITTDCLQILAYGNQESKLIILASGGPQALVNIMRTYTYEKLLWTTSRVLKVLSVCSSNKPAIVEAGGMQALGLHLTDPSQRLVQNCLWTLRNLSDAATKQEGMEGLLGTLVQLLGSDDINVVTCAAGILSNLTCNNYKNKMMVCQVGGIEALVRTVLRAGDREDITEPAICALRHLTSRHQEAEMAQNAVRLHYGLPVVVKLLHPPSHWPLIKATVGLIRNLALCPANHAPLREQGAIPRLVQLLVRAHQDTQRRTSMGGTQQQFVEGVRMEEIVEGCTGALHILARDVHNRIVIRGLNTIPLFVQLLYSPIENIQRVAAGVLCELAQDKEAAEAIEAEGATAPLTELLHSRNEGVATYAAAVLFRMSEDKPQDYKKRLSVELTSSLFRTEPMAWNETADLGLDIGAQGEALGYRQDDPSYRSFHSGGYGQDALGMDPMMEHEMGGHHPGADYPVDGLPDLGHAQDLMDGLPPGDSNQLAWFDTDL
partner: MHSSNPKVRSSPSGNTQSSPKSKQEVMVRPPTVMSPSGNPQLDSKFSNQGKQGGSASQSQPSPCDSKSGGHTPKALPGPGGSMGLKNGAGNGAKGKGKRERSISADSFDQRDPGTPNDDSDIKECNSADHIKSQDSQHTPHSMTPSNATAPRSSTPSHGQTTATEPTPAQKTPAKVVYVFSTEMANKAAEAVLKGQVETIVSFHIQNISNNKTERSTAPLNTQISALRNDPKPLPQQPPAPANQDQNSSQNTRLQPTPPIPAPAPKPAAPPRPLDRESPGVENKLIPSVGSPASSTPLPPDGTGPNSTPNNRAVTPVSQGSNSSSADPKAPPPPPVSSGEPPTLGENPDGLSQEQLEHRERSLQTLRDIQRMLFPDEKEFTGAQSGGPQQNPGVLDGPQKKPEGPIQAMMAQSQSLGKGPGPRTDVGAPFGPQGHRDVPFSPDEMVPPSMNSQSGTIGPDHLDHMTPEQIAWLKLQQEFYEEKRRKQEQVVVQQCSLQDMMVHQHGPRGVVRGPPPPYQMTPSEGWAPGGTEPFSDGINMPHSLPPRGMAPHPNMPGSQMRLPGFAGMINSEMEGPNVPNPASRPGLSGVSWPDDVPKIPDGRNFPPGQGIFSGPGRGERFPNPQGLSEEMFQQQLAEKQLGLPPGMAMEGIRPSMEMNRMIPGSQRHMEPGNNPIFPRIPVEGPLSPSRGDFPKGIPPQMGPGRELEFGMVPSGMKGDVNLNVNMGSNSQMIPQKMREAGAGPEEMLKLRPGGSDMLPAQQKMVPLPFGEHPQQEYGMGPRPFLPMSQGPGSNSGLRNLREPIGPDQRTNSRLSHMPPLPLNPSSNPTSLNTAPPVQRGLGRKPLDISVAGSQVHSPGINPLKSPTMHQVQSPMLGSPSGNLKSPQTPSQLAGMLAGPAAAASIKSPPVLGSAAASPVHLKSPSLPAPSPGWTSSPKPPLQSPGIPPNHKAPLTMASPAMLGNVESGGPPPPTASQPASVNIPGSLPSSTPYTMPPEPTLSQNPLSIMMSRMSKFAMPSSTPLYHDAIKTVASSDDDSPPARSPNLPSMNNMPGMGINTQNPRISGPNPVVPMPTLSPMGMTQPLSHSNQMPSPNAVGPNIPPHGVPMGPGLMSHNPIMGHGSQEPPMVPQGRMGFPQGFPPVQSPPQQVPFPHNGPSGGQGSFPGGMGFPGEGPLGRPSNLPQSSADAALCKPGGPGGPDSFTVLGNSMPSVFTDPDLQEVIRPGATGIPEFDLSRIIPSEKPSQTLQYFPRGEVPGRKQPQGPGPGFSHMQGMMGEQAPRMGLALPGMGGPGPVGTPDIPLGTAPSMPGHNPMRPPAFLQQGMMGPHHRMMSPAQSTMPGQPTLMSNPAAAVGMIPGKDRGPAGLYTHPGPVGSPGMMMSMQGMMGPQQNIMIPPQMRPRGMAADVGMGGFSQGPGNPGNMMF
B2: Catenin beta-1 (Mus musculus), Q02248 (parent)
chain: B1 chain
partner: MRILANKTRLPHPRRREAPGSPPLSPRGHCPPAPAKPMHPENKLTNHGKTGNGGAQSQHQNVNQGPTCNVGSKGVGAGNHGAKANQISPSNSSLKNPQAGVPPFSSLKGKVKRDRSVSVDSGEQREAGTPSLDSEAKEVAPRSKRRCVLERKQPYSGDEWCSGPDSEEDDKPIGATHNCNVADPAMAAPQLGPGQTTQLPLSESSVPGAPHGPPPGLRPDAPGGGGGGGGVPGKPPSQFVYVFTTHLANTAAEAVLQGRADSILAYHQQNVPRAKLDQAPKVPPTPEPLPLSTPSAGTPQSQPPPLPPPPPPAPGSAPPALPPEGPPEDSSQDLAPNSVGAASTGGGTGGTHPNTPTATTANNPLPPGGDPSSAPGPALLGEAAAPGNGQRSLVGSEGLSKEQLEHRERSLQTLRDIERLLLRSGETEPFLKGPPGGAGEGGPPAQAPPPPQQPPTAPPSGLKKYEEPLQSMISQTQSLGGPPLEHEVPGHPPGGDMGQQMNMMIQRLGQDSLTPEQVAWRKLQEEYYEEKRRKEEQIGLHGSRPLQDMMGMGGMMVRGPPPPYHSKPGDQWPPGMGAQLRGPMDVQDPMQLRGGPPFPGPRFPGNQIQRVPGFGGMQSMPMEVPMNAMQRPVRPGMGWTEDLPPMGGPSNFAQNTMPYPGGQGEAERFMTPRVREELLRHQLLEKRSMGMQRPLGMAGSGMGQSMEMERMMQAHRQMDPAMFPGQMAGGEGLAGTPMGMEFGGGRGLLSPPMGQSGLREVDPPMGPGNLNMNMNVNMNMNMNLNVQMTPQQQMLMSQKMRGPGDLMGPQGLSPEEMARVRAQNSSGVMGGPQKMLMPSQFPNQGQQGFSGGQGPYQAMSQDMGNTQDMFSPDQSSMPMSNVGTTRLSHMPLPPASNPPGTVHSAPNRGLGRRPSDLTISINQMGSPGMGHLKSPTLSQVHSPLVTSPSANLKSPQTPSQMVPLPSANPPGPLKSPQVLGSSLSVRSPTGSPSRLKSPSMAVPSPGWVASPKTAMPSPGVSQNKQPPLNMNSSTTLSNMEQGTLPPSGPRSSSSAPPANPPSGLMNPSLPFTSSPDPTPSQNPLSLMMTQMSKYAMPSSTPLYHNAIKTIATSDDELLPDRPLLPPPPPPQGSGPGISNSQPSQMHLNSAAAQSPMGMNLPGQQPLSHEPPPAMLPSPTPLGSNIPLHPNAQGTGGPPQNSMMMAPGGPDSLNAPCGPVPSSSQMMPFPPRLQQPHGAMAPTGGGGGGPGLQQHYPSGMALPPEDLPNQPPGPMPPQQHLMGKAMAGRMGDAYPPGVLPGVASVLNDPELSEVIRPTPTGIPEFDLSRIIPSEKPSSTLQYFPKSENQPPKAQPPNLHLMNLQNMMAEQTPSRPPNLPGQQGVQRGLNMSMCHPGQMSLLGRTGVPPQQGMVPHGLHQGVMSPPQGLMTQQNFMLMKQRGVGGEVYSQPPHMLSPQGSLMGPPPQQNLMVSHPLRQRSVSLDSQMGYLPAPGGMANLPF

Variants of: B1
Details: with bcl9_human BCL9, O00512

| Variant | effect of a mutation on the interaction |
| --- | --- |
| D164A | disrupting interaction |

Variants of: B2
Details: with bcl9l_human BCL9L

| Variant | effect of a mutation on the interaction |
| --- | --- |
| D164A | disrupting interaction |
